Measurements published in the supplement of paper PMC11246515.
± gives the standard deviation of the averaged measurements.

Experiment: total protein half-life in vivo (active degradation + dilution); higher = more stable protein
[1] = E. coli NCM3722 delta-clpP delta-lon delta-hslV, growth: N-lim chemostat, doubling time 6 h
[2] = E. coli NCM3722 delta-clpP, growth: N-lim chemostat, doubling time 6 h
[3] = E. coli NCM3722 delta-hslV, growth: N-lim chemostat, doubling time 6 h
[4] = E. coli NCM3722 delta-lon, growth: N-lim chemostat, doubling time 6 h
[5] = E. coli NCM3722 delta-smpB, growth: N-lim chemostat, doubling time 6 h
[6] = wild type E. coli NCM3722, growth: C-lim chemostat, doubling time 3 h
[7] = wild type E. coli NCM3722, growth: C-lim chemostat, doubling time 6 h
[8] = wild type E. coli NCM3722, growth: C-lim chemostat, doubling time 12 h
[9] = wild type E. coli NCM3722, growth: N-lim chemostat, doubling time 6 h
[10] = wild type E. coli NCM3722, growth: N-lim chemostat, doubling time 12 h
[11] = wild type E. coli NCM3722, growth: P-lim chemostat, doubling time 6 h
[12] = wild type E. coli NCM3722, growth: P-lim chemostat, doubling time 12 h

MFDIGFSELLLVFIIGLVVLGPQRLPVAVKTVAGWIRALRSLATTVQNELTQELKLQEFQDSLKKVEKASLTNLTPELKASMDELRQAAESMKRSYVANDPEKASDEAHTIHNPVVKDNEAAHEGVTPAAAQTQASSPEQKPETTPEPVVKPAADAEPKTAAPSPSSSDKP
total protein half-life in vivo [1]: 4.29 ± 0.055 h | total protein half-life in vivo [2]: 5.27 ± 1.5 h | total protein half-life in vivo [3]: 5.04 ± 0.61 h | total protein half-life in vivo [4]: 3.92 ± 0.51 h | total protein half-life in vivo [5]: 4.49 ± 0.26 h | total protein half-life in vivo [6]: 2.57 ± 0.12 h | total protein half-life in vivo [7]: 4.41 ± 0.55 h | total protein half-life in vivo [8]: 7 ± 1.1 h | total protein half-life in vivo [9]: 4.65 ± 0.15 h | total protein half-life in vivo [10]: 8.87 ± 1.3 h | total protein half-life in vivo [11]: 4.27 ± 0.49 h | total protein half-life in vivo [12]: 7.92 ± 0.28 h

MFDIGVNLTSSQFAKDRDDVVACAFDAGVNGLLITGTNLRESQQAQKLARQYSSCWSTAGVHPHDSSQWQAATEEAIIELAAQPEVVAIGECGLDFNRNFSTPEEQERAFVAQLRIAADLNMPVFMHCRDAHERFMTLLEPWLDKLPGAVLHCFTGTREEMQACVAHGIYIGITGWVCDERRGLELRELLPLIPAEKLLIETDAPYLLPRDLTPKPSSRRNEPAHLPHILQRIAHWRGEDAAWLAATTDANVKTLFGIAF
total protein half-life in vivo [1]: 5.07 ± 0.43 h | total protein half-life in vivo [2]: 4.32 ± 0.31 h | total protein half-life in vivo [4]: 5.25 ± 0.68 h | total protein half-life in vivo [5]: 3.97 ± 0.48 h | total protein half-life in vivo [6]: 2.67 h | total protein half-life in vivo [7]: 5.44 ± 0.34 h | total protein half-life in vivo [8]: 8.95 ± 0.15 h | total protein half-life in vivo [9]: 5.25 ± 1 h | total protein half-life in vivo [10]: 8.13 ± 1.8 h | total protein half-life in vivo [11]: 4.15 ± 0.38 h | total protein half-life in vivo [12]: 9.01 ± 0.23 h

MFDRYDAGEQAVLVHIYFTQDKDMEDLQEFESLVSSAGVEALQVITGSRKAPHPKYFVGEGKAVEIAEAVKATGASVVLFDHALSPAQERNLERLCECRVIDRTGLILDIFAQRARTHEGKLQVELAQLRHLATRLVRGWTHLERQKGGIGLRGPGETQLETDRRLLRNRIVQIQSRLERVEKQREQGRQSRIKADVPTVSLVGYTNAGKSTLFNRITEARVYAADQLFATLDPTLRRIDVADVGETVLADTVGFIRHLPHDLVAAFKATLQETRQATLLLHVIDAADVRVQENIEAVNTVLEEIDAHEIPTLLVMNKIDMLEDFEPRIDRDEENKPNRVWLSAQTGAGIPQLFQALTERLSGEVAQHTLRLPPQEGRLRSRFYQLQAIEKEWMEEDGSVSLQVRMPIVDWRRLCKQEPALIDYLI
total protein half-life in vivo [1]: 5.01 ± 0.4 h | total protein half-life in vivo [2]: 4.19 ± 0.56 h | total protein half-life in vivo [3]: 3.18 ± 0.019 h | total protein half-life in vivo [4]: 3.87 ± 0.12 h | total protein half-life in vivo [5]: 2.77 ± 0.12 h | total protein half-life in vivo [6]: 2.34 ± 0.078 h | total protein half-life in vivo [7]: 4.15 ± 0.4 h | total protein half-life in vivo [8]: 5.93 ± 0.57 h | total protein half-life in vivo [9]: 3.31 ± 0.19 h | total protein half-life in vivo [10]: 4.68 ± 0.19 h | total protein half-life in vivo [11]: 3.34 ± 0.12 h | total protein half-life in vivo [12]: 5.9 ± 0.61 h

MFDSTLNPLWQRYILAVQEEVKPALGCTEPISLALAAAVAAAELEGPVERVEAWVSPNLMKNGLGVTVPGTGMVGLPIAAALGALGGNANAGLEVLKDATAQAIADAKALLAAGKVSVKIQEPCDEILFSRAKVWNGEKWACVTIVGGHTNIVHIETHDGVVFTQQACVAEGEQESPLTVLSRTTLAEILKFVNEVPFAAIRFILDSAKLNCALSQEGLSGKWGLHIGATLEKQCERGLLAKDLSSSIVIRTSAASDARMGGATLPAMSNSGSGNQGITATMPVVVVAEHFGADDERLARALMLSHLSAIYIHNQLPRLSALCAATTAAMGAAAGMAWLVDGRYETISMAISSMIGDVSGMICDGASNSCAMKVSTSASAAWKAVLMALDDTAVTGNEGIVAHDVEQSIANLCALASHSMQQTDRQIIEIMASKAR
total protein half-life in vivo [1]: 4.74 ± 0.075 h

MFEINPVNNRIQDLTERSDVLRGYLDYDAKKERLEEVNAELEQPDVWNEPERAQALGKERSSLEAVVDTLDQMKQGLEDVSGLLELAVEADDEETFNEAVAELDALEEKLAQLEFRRMFSGEYDSADCYLDIQAGSGGTEAQDWASMLERMYLRWAESRGFKTEIIEESEGEVAGIKSVTIKISGDYAYGWLRTETGVHRLVRKSPFDSGGRRHTSFSSAFVYPEVDDDIDIEINPADLRIDVYRTSGAGGQHVNRTESAVRITHIPTGIVTQCQNDRSQHKNKDQAMKQMKAKLYELEMQKKNAEKQAMEDNKSDIGWGSQIRSYVLDDSRIKDLRTGVETRNTQAVLDGSLDQFIEASLKAGL
total protein half-life in vivo [1]: 5.162 ± 0.05 h | total protein half-life in vivo [2]: 4.669 ± 0.007 h | total protein half-life in vivo [3]: 4.335 ± 0.033 h | total protein half-life in vivo [4]: 5.14 ± 0.28 h | total protein half-life in vivo [5]: 4.282 ± 0.0079 h | total protein half-life in vivo [6]: 2.79 ± 0.044 h | total protein half-life in vivo [7]: 4.99 ± 0.27 h | total protein half-life in vivo [8]: 8.37 ± 0.37 h | total protein half-life in vivo [9]: 4.37 ± 0.28 h | total protein half-life in vivo [10]: 6.87 ± 0.013 h | total protein half-life in vivo [11]: 4.6 ± 0.33 h | total protein half-life in vivo [12]: 8.54 ± 0.3 h

MFEITGINVSGALKAVVMATGFENPLSSVNEIETKLSALLGSETTGEILFDLLCANGPEWNRFVTLEMKYGRIMLDTAKIIDEQDVPTHILSKLTFTLRNHPEYLEASVLSPDDVRQVLSMDF
total protein half-life in vivo [1]: 5.32 ± 0.4 h | total protein half-life in vivo [6]: 2.73 h | total protein half-life in vivo [7]: 5.11 h

MFGKLSLDAVPFHEPIVMVTIAGIILGGLALVGLITYFGKWTYLWKEWLTSVDHKRLGIMYIIVAIVMLLRGFADAIMMRSQQALASAGEAGFLPPHHYDQIFTAHGVIMIFFVAMPFVIGLMNLVVPLQIGARDVAFPFLNNLSFWFTVVGVILVNVSLGVGEFAQTGWLAYPPLSGIEYSPGVGVDYWIWSLQLSGIGTTLTGINFFVTILKMRAPGMTMFKMPVFTWASLCANVLIIASFPILTVTVALLTLDRYLGTHFFTNDMGGNMMMYINLIWAWGHPEVYILILPVFGVFSEIAATFSRKRLFGYTSLVWATVCITVLSFIVWLHHFFTMGAGANVNAFFGITTMIIAIPTGVKIFNWLFTMYQGRIVFHSAMLWTIGFIVTFSVGGMTGVLLAVPGADFVLHNSLFLIAHFHNVIIGGVVFGCFAGMTYWWPKAFGFKLNETWGKRAFWFWIIGFFVAFMPLYALGFMGMTRRLSQQIDPQFHTMLMIAASGAVLIALGILCLVIQMYVSIRDRDQNRDLTGDPWGGRTLEWATSSPPPFYNFAVVPHVHERDAFWEMKEKGEAYKKPDHYEEIHMPKNSGAGIVIAAFSTIFGFAMIWHIWWLAIVGFAGMIITWIVKSFDEDVDYYVPVAEIEKLENQHFDEITKAGLKNGN [P0ABI8]
total protein half-life in vivo [1]: 6.54 ± 0.5 h | total protein half-life in vivo [3]: 6.89 ± 0.66 h | total protein half-life in vivo [4]: 6.02 ± 0.071 h | total protein half-life in vivo [5]: 6.54 ± 0.66 h | total protein half-life in vivo [7]: 5.86 ± 0.97 h | total protein half-life in vivo [8]: 14.5 ± 0.29 h | total protein half-life in vivo [9]: 5.84 ± 0.49 h | total protein half-life in vivo [10]: 11.9 ± 0.69 h | total protein half-life in vivo [11]: 6.04 ± 0.13 h
